The labels stand for the following.
B1: SV017.47D7.1C2 (antibody, V domains shown)
VH: EVQLVESGGGLVQPGGSLRLSCAATGFTFSSYWMHWVRQGPGKGLVWVSRINSDGTSTVYADSVKGRFTISRDNAKNTLYLQMNSLRAEDTAVYYCARGRGIMTYWGQGTLVTVSS
VL: DIQMTQSPSSLSASVGDRVTITCRASQDIGSWLTWYQRKPEKAPKSLIYAASSLQSGVPSRFSGSGSGTDFTLTISSLQPEDFATYYCQQYKSYPLTFGQGAKLEIK
notes: also called antibody from hybridoma clone SV017.47D7.1C2
B2: SV017.51F4.1A1 (antibody, V domains shown)
VH: B1 VH
VL: B1 VL
notes: also called antibody from hybridoma clone SV017.51F4.1A1
B3: SV017.13B12.1E1 (antibody, V domains shown)
VH: B1 VH with Y80H
VL: B1 VL
notes: also called antibody from hybridoma clone SV017.13B12.1E1
B4: SV017.50G3.1B1 (antibody, V domains shown)
VH: B1 VH with G16E, Y80F
VL: B1 VL
notes: also called antibody from hybridoma clone SV017.50G3.1B1
B5: SV018.45B6.1G1 (antibody, V domains shown)
VH: QVQLLQSGAEVKKPGASVKVSCKASGYTFTTYGISWVRQAPGQGLEWLGWITAYNRNTNYAQKLQGRVTMTTDTSTSTSFMVLRSLRSDDTAVYYCARVGDSDAFDIWGQGTMVTVSS
VL: EIVMTQSPATLSLSPGERATLSCRTSQSVFNSFLSWYQQKPGQAPRLLLYGTSTRATGIPARFSGSGSGTDFTLTISSLQPEDFAVYYCQQDYKLPLTFGGGTKVEIK
notes: also called SV018.45.1G1
B6: SV018.20B12.1D1 (antibody, V domains shown)
VH: QVQLQESGPGLVKPSETLSLTCTVSGGSISSYYWSWIRQPPGKGLEWIGYIYYSGSTNYNPSLKSRVTISVDTSKNQFSLKLSSVTAADTAVYYCARTGYIPMDVWGQGTTVTVSS
VL: EIVLTQSPDFQSVTPKEKVTITCRASQSIGSNLHWYQQKPDQSPKLLIKYVSQSFSGVPSRFSGSGSGTDFTLTINSLEAEDAATYYCHQSRSLPYTFGQGTKLEIK
notes: also called antibody from hybridoma clone SV018.20B12.1D1

Substitutions are numbered along the chain they refer to.

The first assay deals with T1, membrane-bound rhesus MSLN (Rhesus (Macaca mulatta)).
T1 construct: The expressed construct is not described further; also called Rh MSLN-CHOK1; RhMSLN
T1 chain: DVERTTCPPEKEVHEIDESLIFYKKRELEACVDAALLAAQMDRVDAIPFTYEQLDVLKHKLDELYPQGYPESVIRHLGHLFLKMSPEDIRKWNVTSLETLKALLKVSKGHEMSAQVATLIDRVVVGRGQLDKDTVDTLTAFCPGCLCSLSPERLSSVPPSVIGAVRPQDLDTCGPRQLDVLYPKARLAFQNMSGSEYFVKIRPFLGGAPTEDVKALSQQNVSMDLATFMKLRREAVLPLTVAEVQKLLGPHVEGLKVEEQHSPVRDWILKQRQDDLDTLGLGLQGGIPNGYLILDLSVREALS
The experiment in a line: cell ELISA, CHOK1 cells expressing rhesus MSLN. The procedure:
(§1) The wells of a 96-well plate are seeded with sufficient cells to provide 95-100% confluency on day 0 (the day of assay). On day 0 the culture medium is removed and 50 μL/well hybridoma supernatant fraction, or purified antibody starting at 10 μg/mL or equal molar concentration and serially diluted 4 or 5-fold in CHO medium (DMEM F12, 10% Bovine serum). The plate is then incubated for an hour at room temperature or a temperature up to 37° C. Next, about 50 μL of a pre-determined concentration of ligand is added to the wells of the plate and the plate incubated for 30 minutes at room temperature or a temperature up to 37° C. The plate wells are washed with ELISA wash (PBS containing 0.05% polysorbate 20. Next, 50 μL/well of HRP-conjugated anti-species IgG diluted 1:2000 in CHO medium is added to the wells and the plate incubated for an hour at room temperature or a temperature up to 37° C. HRP conjugated anti-species IgG include goat anti-mouse IgG-HRP (Southern Biotech, cat #1030-05), goat anti-rat IgG-HRP (Southern Biotech, cat #3030-05), and goat anti-human IgG-HRP (Jackson Immunologics, cat #109-036-098). The plate wells are washed with the ELISA wash. Next, 50 μL/well TMB substrate (1 step Ultra TMB-ELISA: Thermo Fisher, Cat #34029) is added to the wells. When the blank starts to turn blue, 50 μL/well TMB stop solution (KPL, Cat #50-85-06) is added to the wells and A450-A620 is measured on an ELISA reader.
(§2) The OVACAR3 cell line is a human ovarian cancer cell line that expresses high levels of human MSLN.
The EC50 is the concentration that produces a half-maximal response. Low readings indicate an effect from little substance, high ones a need for much substance. Molecule B1 returned an EC50 of 0.26 µg/mL.

With B2, the EC50 came out at 0.26 µg/mL.

In turn, B3 gave an EC50 of 0.23 µg/mL.

Molecule B4 came in with an EC50 of 0.33 µg/mL.

With B5, the binding result is “no binding”.

Regarding B6, the binding result is on record as “no binding”.

The next assay deals with T2, soluble human MSLN (87BGR) (human, UniProt Q13421 296-598).
T2 construct: Purified soluble protein coated on the ELISA plate; also called HuMSLN (87BGR); purified human MSLN
T2 sequence (Q13421 other isoform, or with tags, fused parts or gaps limits assumed, form in doubt): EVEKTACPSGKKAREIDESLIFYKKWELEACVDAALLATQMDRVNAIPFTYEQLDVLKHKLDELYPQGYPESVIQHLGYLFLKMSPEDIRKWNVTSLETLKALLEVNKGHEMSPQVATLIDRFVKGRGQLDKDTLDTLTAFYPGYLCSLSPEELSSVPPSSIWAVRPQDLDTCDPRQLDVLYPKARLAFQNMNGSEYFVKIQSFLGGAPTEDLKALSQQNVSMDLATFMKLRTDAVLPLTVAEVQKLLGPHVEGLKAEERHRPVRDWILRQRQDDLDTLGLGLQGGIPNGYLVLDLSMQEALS
Briefly: protein ELISA, coated soluble human MSLN (87BGR). On the procedure: (§3) The wells of a 96-well plate are coated with 50 μL of purified human or rhesus MSLN in a carbonate coating buffer (5.3 g NaHCO₃ and 3.2 g Na₂CO₃ in 2 L H₂0) or HyClone Dulbecco's phosphate buffered saline (DPBS; Hyclone, cat #SH30028.02) at a concentration of 1-2 μg/mL and incubated overnight at 4° C. Afterwards, the plate wells are washed with well wash solution (phosphate buffered saline containing 0.05% polysorbate 20). The plate wells are then blocked by adding Super Block Blocking Buffer T20 (Thermo Scientific, #37536) for 1-2 hours at room temperature followed by washing with well wash solution. Next, 50 μL/well hybridoma supernatant fraction (used neat), or purified antibody starting at 10 μg/mL and serially diluted 4- or 5-fold in ELISA buffer (DPBS+0.1% BSA+0.05% polysorbate 20 is added to the wells. The plates are incubated for an hour at room temperature, then the wells washed with well wash solution and 50 μL/well horseradish […] (HRP) conjugated anti-species IgG diluted 1:3000-5000 in ELISA buffer is added to the wells. HRP conjugated anti-species IgG include goat anti-mouse IgG-HRP (Southern Biotech, cat #1030-05), goat anti-rat IgG-HRP (Southern Biotech, cat #3030-05), and goat anti-human IgG-HRP (Jackson Immunologics, cat #109-036-098). The plates are incubated for an hour at room temperature, then the wells washed with well wash and 50 μL/well ABTS Peroxidase Substrate (Kirkgaard & Perry Laboratories) is added to the wells. After 10 minutes the OD at 405 nm is measured using an ELISA plate reader.
as §2
(In general: ELISA stands for enzyme-linked immunosorbent assay.)
As to B1, the response was half-maximal at 0.03 µg/mL (EC50).

Turning to B2, the midpoint of the response, the EC50, lay at 0.03 µg/mL.

In turn, B3 yielded an EC50 of 0.04 µg/mL.

B4 displayed an EC50 of 0.04 µg/mL.

Molecule B5 displayed an EC50 of 1.37 µg/mL.

The molecule B6 came in with an EC50 of 0.11 µg/mL.

The target in another assay is T3, membrane-bound human MSLN (human, UniProt Q13421 296-598).
T3 construct: the assay field says which; The construct expressed in CHOK1 is not described further; also called HuMSLN-CHOK1; human mesothelin on CHOK1 cells
T3 sequence (Q13421 other isoform, or with tags, fused parts or gaps limits assumed): as the sequence (Q13421 other isoform, or with tags, fused parts or gaps limits assumed, form in doubt) above
The experiment in a line: cell ELISA, OVCAR3 cells (endogenous human MSLN).
Take B1: a half-maximal effect (EC50) was put at 0.01 µg/mL.

With B2, the EC50 amounted to 0.01 µg/mL.

As for B3, the EC50 amounted to 0.01 µg/mL.

In turn, B4 yielded an EC50 of 0.01 µg/mL.

In turn, B6 displayed an EC50 of 0.01 µg/mL.

The next assay concerns the target T3, membrane-bound human MSLN. The experiment in a line: cell ELISA, CHOK1 cells expressing human MSLN. On the procedure: as §1, §2
On to B1, for which the EC50 is 0.03 µg/mL.

For the molecule B2, the EC50 was 0.04 µg/mL.

On to B3, for which the EC50 came out at 0.02 µg/mL.

Consider B4, for which the EC50 amounted to 0.05 µg/mL.

B5 showed an EC50 of 0.01 µg/mL.

B6 came in with an EC50 of 0.01 µg/mL.

The next assay has as its target T4, soluble rhesus MSLN (87BIC) (Rhesus (Macaca mulatta)).
T4 construct: Purified soluble protein coated on the ELISA plate; also called Rh MSLN (87BIC); purified rhesus MSLN
T4 chain: T1 chain
Briefly: protein ELISA, coated soluble rhesus MSLN (87BIC). On the procedure: as §3, §2
Molecule B1 had an EC50 of 0.01 µg/mL.

B2 yielded an EC50 of 0.02 µg/mL.

The molecule B3 displayed an EC50 of 0.02 µg/mL.

As to B4, a half-maximal effect (EC50) was put at 0.02 µg/mL.

Source of the values: patent US20260258147A1 (Merck Sharp & Dohme, published 2026).
